Patent US7148202

Biological target: FGF receptor on COS cells
Test: cell-based or functional assay

Substance | transduction efficiency (GFP positive autofluorescent COS cells) against control phage MEGFP3 [fold] | phagemid particle-dependent transfection of COS-1 cells (fold molar excess)
FGF2 display phage MF2/1G3 (FGF2-pIII fusion on M13 type 3 phage) (from UniProt P09038 2-155; P69168 19-424) | 10 | 
free FGF2 (non-biotinylated) (from UniProt P09038 2-155) (ligand) |  | 100
